Test results taken from patent US20020193570A1.
One block for each substance: values may come before it.

Tests used:
[1] = target: IL-12 receptor on mouse effector cells (mouse) (UniProt Q60837); assay: cell-based or functional assay
[2] = target: KS antigen recognized by the KS-1/4 antibody (plate-coated / as antigen) (UniProt P16422); assay: ELISA, plates coated with KS antigen, detection with anti-human IL-12 p40 antibody
[3] = target: IL-12 receptor on human PBMC (human) (UniProt P42701); assay: cell-based or functional assay
Sequence of IL-12 receptor on human PBMC (human) (Q99665 24-862, chain 2 of 2, other chains not shown): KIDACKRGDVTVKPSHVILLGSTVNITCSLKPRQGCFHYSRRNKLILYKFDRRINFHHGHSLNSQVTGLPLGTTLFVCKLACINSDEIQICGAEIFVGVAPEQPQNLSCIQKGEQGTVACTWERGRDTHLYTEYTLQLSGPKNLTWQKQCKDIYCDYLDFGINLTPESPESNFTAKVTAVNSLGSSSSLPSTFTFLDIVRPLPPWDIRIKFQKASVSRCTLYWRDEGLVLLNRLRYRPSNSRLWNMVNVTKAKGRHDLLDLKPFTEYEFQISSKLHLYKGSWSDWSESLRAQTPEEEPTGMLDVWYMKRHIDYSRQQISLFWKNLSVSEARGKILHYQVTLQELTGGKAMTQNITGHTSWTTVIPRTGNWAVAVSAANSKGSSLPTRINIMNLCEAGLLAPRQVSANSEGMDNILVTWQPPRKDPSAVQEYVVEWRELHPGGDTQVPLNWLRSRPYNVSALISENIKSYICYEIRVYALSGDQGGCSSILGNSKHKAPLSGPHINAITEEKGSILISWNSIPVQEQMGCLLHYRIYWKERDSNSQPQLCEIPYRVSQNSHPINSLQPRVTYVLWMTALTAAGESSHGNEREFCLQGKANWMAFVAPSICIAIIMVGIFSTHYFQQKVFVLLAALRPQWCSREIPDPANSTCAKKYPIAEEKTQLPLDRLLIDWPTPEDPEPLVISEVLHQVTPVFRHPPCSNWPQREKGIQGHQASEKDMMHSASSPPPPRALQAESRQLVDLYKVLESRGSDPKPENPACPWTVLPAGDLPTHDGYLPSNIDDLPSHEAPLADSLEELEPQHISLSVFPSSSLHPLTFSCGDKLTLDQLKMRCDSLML

Sequence of IL-12 receptor on mouse effector cells (mouse) (Q60837 20-738, chain 1 of 2): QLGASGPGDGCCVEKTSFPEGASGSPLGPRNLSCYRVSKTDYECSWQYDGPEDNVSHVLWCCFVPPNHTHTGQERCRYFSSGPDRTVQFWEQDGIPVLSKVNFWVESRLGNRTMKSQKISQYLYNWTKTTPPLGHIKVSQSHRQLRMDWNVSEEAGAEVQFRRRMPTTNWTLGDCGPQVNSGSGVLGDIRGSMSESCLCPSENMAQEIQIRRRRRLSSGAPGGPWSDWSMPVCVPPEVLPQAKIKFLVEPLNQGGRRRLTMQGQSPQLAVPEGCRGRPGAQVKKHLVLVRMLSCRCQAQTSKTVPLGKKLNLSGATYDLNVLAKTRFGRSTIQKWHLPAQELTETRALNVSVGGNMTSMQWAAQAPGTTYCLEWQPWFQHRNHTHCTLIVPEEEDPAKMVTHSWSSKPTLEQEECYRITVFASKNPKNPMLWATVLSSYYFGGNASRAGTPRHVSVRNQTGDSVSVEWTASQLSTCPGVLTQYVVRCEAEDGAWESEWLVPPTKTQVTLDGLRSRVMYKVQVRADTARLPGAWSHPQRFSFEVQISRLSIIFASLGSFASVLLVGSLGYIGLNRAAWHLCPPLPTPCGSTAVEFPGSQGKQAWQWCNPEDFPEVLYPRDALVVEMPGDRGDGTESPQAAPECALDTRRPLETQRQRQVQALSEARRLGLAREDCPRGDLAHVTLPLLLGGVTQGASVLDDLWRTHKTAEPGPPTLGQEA
Sequence of IL-12 receptor on mouse effector cells (mouse) (P97378 24-874, chain 2 of 2, further chain): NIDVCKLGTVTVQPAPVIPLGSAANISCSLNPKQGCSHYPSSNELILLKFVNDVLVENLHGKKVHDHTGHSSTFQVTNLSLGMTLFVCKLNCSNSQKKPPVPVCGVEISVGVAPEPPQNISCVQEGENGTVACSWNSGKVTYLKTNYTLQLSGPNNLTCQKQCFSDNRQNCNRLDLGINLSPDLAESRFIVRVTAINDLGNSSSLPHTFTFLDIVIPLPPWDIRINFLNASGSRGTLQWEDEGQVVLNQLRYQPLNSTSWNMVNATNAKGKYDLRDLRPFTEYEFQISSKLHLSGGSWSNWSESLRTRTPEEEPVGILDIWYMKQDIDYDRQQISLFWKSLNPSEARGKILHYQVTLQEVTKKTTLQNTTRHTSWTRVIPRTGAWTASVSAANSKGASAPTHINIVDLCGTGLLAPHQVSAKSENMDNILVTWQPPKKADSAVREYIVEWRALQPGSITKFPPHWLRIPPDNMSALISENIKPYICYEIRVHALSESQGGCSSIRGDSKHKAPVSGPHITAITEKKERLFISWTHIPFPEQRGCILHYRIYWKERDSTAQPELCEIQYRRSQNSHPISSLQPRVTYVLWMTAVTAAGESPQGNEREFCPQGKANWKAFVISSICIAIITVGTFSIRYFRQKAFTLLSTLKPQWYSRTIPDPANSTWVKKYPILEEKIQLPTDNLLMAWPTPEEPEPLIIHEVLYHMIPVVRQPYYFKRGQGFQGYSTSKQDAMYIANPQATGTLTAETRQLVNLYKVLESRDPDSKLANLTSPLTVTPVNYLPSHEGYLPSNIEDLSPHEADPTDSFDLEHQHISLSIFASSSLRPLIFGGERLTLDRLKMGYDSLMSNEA
Sequence of KS antigen recognized by the KS-1/4 antibody (plate-coated / as antigen) (P16422 24-265 limits assumed): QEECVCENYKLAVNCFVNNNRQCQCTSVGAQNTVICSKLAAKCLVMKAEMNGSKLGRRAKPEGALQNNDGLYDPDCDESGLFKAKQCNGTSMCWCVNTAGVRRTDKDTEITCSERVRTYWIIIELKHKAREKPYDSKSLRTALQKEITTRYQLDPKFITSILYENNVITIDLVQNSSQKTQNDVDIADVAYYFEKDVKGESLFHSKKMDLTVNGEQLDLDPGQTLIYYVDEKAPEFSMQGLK

induction of IFN-γ secretion from mouse cells (fold less than the mouse IL-12 control) [1]: 50 | intensity of binding against the whole KS-1/4 antibody (fold lower than whole KS-1/4 antibody) [2]: 3
Substance: single-chain fusion protein with a mouse p35 subunit and a human p40 subunit (KS-1/4 scFv-mouse p35/human p40) (from UniProt P43431 23-215; P29460 23-328)

induction of IFN-γ secretion from PHA-activated PBMC ([3]; scale: fold less active than Hu-KS-IL-12 with human IL-12 chains): 4 | induction of IFN-γ secretion from mouse effector cells pre-stimulated with Concanavalin A ([1]; scale: fold less active than the mouse IL-12 standard): 50
Substance: Hu-KS-1/4-mouse p35 human p40 fusion protein (from UniProt P01857 1-330; P43431 23-215; P29460 23-328) (antibody)

induction of IFN-γ secretion from PHA-activated PBMC (fold less active than the IL-12 standard) [3]: 6
Substance: Hu-KS-IL-12 fusion protein with both human IL-12 chains (from UniProt P01857 1-330; P29459 23-219; P29460 23-328) (antibody)

intensity of binding against the whole KS-1/4 antibody (fold lower than whole KS-1/4 antibody) [2]: 3
Substance: single-chain fusion protein with human p35 and p40 subunits (KS-1/4 scFv-human IL-12) (from UniProt P29459 23-219; P29460 23-328)
